B1: core fragment (CF) of STAT3, biotinylated (domain or fragment)
chain: GQANHPTAAVVTEKQQMLEQHLQDVRKRVQDLEQKMKVVENLQDDFDFNYKTLKSQGDMQDLNGNNQSVTRQKMQQLEQMLTALDQMRRSIVSELAGLLSAMEYVQKTLTDEELADWKRRQQIACIGGPPNICLDRLENWITSLAESQLQTRQQIKKLEELQQKVSYKGDPIVQHRPMLEERIVELFRNLMKSAFVVERQPCMPMHPDRPLVIKTGVQFTTKVRLLVKFPELNYQLKIKVCIDKDSGDVAALRGSRKFNILGTNTKVMNMEESNNGSLSAEFKHLTLREQRCGNGGRANCDASLIVTEELHLITFETEVYHQGLKIDLETHSLPVVVISNICQMPNAWASILWYNMLTNNPKNVNFFTKPPIGTWDQVAEVLSWQFSSTTKRGLSIEQLTTLAEKLLGPGVNYSGCQITWAKFCKENMAGKGFSFWVWLDNIIDLVKKYILALWNEGYIMGFISKERERAILSTKPPGTFLLRFSESSKEGGVTFTWVEKDISGKTQIQSVEPYTKQQLNNMSFAEIIMGYKIMDATNILVSPLVYLYPDIPKEEAFGKYCRPESQEHPEADPGSAAPYLKTKFICVTPTTCSNTI
modifications: biotin on the Avi-tag

Test in all cases: FACS; yeast display
The target in assay [1] is MS3-2.
The target in assay [2] is MS3-8.
Assay [3] addresses MS3-5.
Assay [4] has as its target MS3-1.
For assay [5], the target named is MS3-4.
In assay [6] the target is MS3-7.
Assay [7] deals with MS3-N1.
The target of assay [8] is MS3-N7.
For assay [9], the target named is MS3-N5.
In assay [10] the target is B1.

Turning to B1, the Kd in assay [1] stood at 104 nM; in assay [2] it was 235 nM; in assay [3], 88 nM; in assay [4] it was 127 nM; in assay [5], 18 nM; in assay [6], 135 nM.

B2: N-terminal domain of STAT3, biotinylated (domain or fragment)
chain: QWNQLQQLDTRYLEQLHQLYSDSFPMELRQFLAPWIESQDWAYAASKESHATLVFHNLLGEIDQQYSRFLQESNVLYQHNLRRIKQFLQSRYLEKPMEIARIVARCLWEESRLLQTAATAAQQGGQANHPTAAVVT
modifications: biotin on the Avi-tag
On to B2, for which the Kd was 65 nM in [7], 38 nM in [8] and 39 nM in assay [9].

B3: monobody MS3-6, displayed on yeast cells (designed binder)
chain: VSSVPTKLEVVAATPTSLLISWDAPAVTVDFYHITYGETGGNSPVQEFTVPGSKSTATISGLKPGVDYTITVYAYVSYPEYYFPSPISINYRT
In turn, B3 had a Kd in assay [10] of 8 nM.

A word on the Kd: it is the equilibrium constant for the complex coming apart. Low values mean higher affinity, high ones lower affinity.
